Results as given in the domain aggregation screens of Martell et al. (2025).

Experiment: soluble fraction after stress (log2 fold change); higher = more stays soluble; pooled small domains, quantitative proteomics
Conditions: stress: 50 degC
Summary of the method: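 Pooled custom libraries of small protein domains were measured in a high-throughput format, with quantitative proteomics as the read-out. Each library was stressed at 50°C. Aggregation propensity is given as the base-two logarithm of the fold change in how much of each protein stays soluble after the stress. Higher values mean a larger share of the protein remains in solution.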

Sequence	soluble fraction (log2)
HMGPSEVTLDNFVGKNYTDVVNDTSYQFTFKKEEKSDQTHAAGIIIAQSPKKGIKVKSNSTVTLTVSTG	-0.0626
HMIDEKVQAADKSIEIGNLSPLKGLVTDDEMHELEKLFEKVMALKDFEVNDVGAGRKYIEAYVSFFKFAEG	-0.661
HMSVYIGVDQAKSIAAEHAGLSNSAVTFSKAKLENDDGMTVYEVEFFYQGTEYDYKIDASTGSILEYDLDR	-1.26
HMKQENRLKILRKEKGLTQTKLANEIGVSKRTIIAWENDERQIKPDKAQQLADYFGVKEGYLLGYTNN	0.132
HMNVNVSFTQLRHKAEHAIQAKNWSEARNLLTLATLMRPTHRNVARRLKAVEQRNRLFRRLLLILTHRKV	-0.295
HMQAPVDPIVLGKMGSSYGIRGWLRVFSSTEDAESIFDYQPWFIQKAGQWQQVQLESWKHHNQDMIIKLN	0.0749
HMQKITPDNWTYIRSLIRQKWSPDQIDQWLKKHPDVGFTVSRETIYQYVKEDRQKDGDLYLSLRRAGKSY	-1.71
HMDMRLADLIGRDGITITFMRPSGKVEIDGEIYDAVSDVGLIDKNEEVEVIKFENAQLVVTKKNKN	-0.0621
HMQQEPNFYIVDGNTNQIVDRYYAPDSNVAHQYLGQWRQQHDPQETGNYRYGRLSSETEERYRNLAA	0.236
HMEFVEERRNRMLDYIGENKRADVPELARHFDVTEVTIRRDLLILEQDGKLIRTHGGAMINR	-0.433
HMKVYIKDISDLSDKLKSLLIENDIDDSNKLFEVEDQVLLEIKGLGSKTIDKIKDIVTEYLKKNN	-0.218
HMRYQIAEARKLRDITQAELAEKMGTTQQTIQRYETNQVNIRMDKMIEMSEILNVSLAYLLGMSSSPEL	-0.901
HMKEIDVPNVVGASENAARKLLESYGFQVEVQWENGERVDNAVVKSYSPNGSAKSGSTVTIVLGT	0.062
HMEQETVTVPDLVGKDVVAAQAELHEMGLSGKPDGTGTTVVSQFPVAGARVLKHTNVILYTED	-0.0147
HMDIPGITAVKPQAAFYMFPKIDVKKFNIVNDEKFALDLLQDKKILIVQGSGFNWKQPDHFRVV	-0.103
HMLDYKSALQELLQAQRRSRPRYEVISTEGPDHERVFEVAVWLDNEELGRGKGRSKREAEHQAAQAALTQL	0.068
HMRLPVELTDREVEVLRLLAQAMSNGEIARELYIGEATVKTHVSNVLQKLGARDRVAAVVWAHRYGL	-1.59
HMEVGVSGTVFNTDSLNVRKGPGTNFDTVTSLKRGSVVEVFEQSAVDGTVWGRIANGWVNMQYVSL	-0.093
HMNNKVAVKSGYYFEIFNKEEIPTTLAKTKQKVKINNIQYDLYQGMSLDDERKIDDMFGDRMGYSIDDY	-1.04
HMSSWMTKDGKIKPISKWAGVPMTSQQQADYAAGKVVELTNIPDKQGQLNTVYLKFNPEKQRPTTSLNDPR	0.134
HMETKPTELMLDVHKLRIGMFVYLDLGWMDHPFPLNRFKISTNAQIEQIKGLRLKQVKVMTALSDPASLL	-3.19
HMQGEVPYSQFLTEVDRGDVQSVVIEGNNISGFYKNSSTAFTVVAPDDPKLVERLMEQGVEVKARPV	0.0205
HMFEARNTTFSEDGKTITETYGVKRIETEFVSDSTIVQKLYDNDVLTKTKTITFSADGLSIKEDV	0.0154
HMTEPIESVTTIAGRRIPYRLVRSLRARRMRMTIKESQVTVTLPRGVPLGEAERFLQQNAAWLFKQLDKP	-2.22
HMPHFGVVLQMDDWKTLRDRLEARDDIDWVMKPNLRFEGQPGEQATLFIRDPSGNALEFKGFADLSQVF	-0.348

Sequence	soluble fraction (log2)
HMSVTRELMLVKVKVTPEQRAGVSAIVDIFRANIIDVGKESMIIELTGNKSKLEAFIDLLDGYEILELART	-0.861
HMLAAGTSLTVDTESSNLNIRQEPSTEGVILGKAAKGEVVTLVEQSSDEWWKIKTKDGEEGYAYARYLR	0.203
HMNPMRYLVVPSQETETWKEYLVSKEWLERKYRIETEGDNRAIPLSNLFPKIVPIELSNLEIIEKEAFS	-0.24
HMDALTLSIDAQGALYWNGQPVSRELAAQRFVEAAAQRPQPELHLRADQNVAYRHVAMTLADASRAGLTR	-0.0244
HMNNGTDGLTTRLRRAILAGQYTFKERLPSERQLAEHFNTSRGTVRKVLQRLTTMNLVEQRAGSGTYVRYG	-0.2
HMEELIIQEELANKRLDIAISLLFPELTRAHAQKLIKEGSVLVDGKPRKASYPLTAGKRLSVTLPEPE	0.05
HMTGIKISVDRLQIGNYVKLPLNWKDHPFLFSSFAIKSQEEIDLIRRLGLKQVIMFPDKSSMPPKPV	-1.33
HMAPSLQISLKQAIITAQQQHPGSKALNADFDGARGTPRYVIETLLPTGELRELTIDAQSGQVMEDHPDR	0.119
HMKYKKYKLLKDLPTFKAGQLAYISKTGNLIAGTPENQKTTETGLIIMIYHETTLKKFPNILTEWFEEIE	-2.71
HMDNWLSGLAVEADRMILTQPGEVFDRLSRAFEATLIRRALASTGGRRIEAAHLLGIGRNTITRKIQDLGL	-2.49
HMLGDAWSMLILRDAHSGFSRFDQFRKSLGIAPTMLTKRLSVLVDEGLLEKRQYSEHPPREEYVLTQAGQD	0.0822
HMDLKSLEFAIVENVQRHDLNPLEEAQGYKRLIDEFSYDQDKVSKFIGKSRSYITNSLRLLNLPLEVLEF	-0.049
HMTALAVGDRVKMDKSATIYGTMRKFAAWVYATKLYVRGIDGNRVVVSTLKSGAITGAVDKKHLTK	-1.12
HMIHQPNNETTRNLIAGVVKKSLSVWETRVQVDGVDVTTAKDNLAEVHINIRYRLRHNQTPASLGLRLNLG	0.00106
HMTLPGQDFIRASQLKELIAKYDKQYYEEGVSDISDAEYDRLYEEYLEFENKYPELKDMADAPTKRV	0.332
HMSFGWESLENKEGVADTDLHPSGWVRIEDSRIFVVSEGDFINKGSKVTVLTVDGNRVVVRELI	-0.522
HMGMKTSQKLARQREIVRLIRAQTIRTQAELADALRERAFPVSQPTLSKDIAELGLIKVPLPDSGYRYQLP	-0.378
HMSSGSLLTEREIEILAEMAKGLTNKAIGEKLFISVATVKTHILNIYRKLEVSSRVTAVNKAKQMRL	-1.93
HMRLSVRQRMSDVLGALKTQAFVEFTQLFRPQEGRMGVTVTFSAILELLREGLIEIVQSEPFAPIHVRAGA	-0.0036
HMKVQEMTANSFLTQWEAGNVKTLDILPEGIIKGELNDGTKFQLYYSSAAGLIDDVKKNPEKFANTTVSEK	0.129
HMDELIKQVANYIINNRATINETAGAFGKSVSSIKKYINDADKLQRIDFELYQKVKEVQKIVELNGQI	0.144
HMVSDTGAIEAIVAQVLADNPKLVEGYLATPEDKRGKAIGPFIGLTRKAAAGVNPQVVMDVLKKKLSEL	-0.0515
HMRTLSAGVAGRLRADILNGLLEPGRRLGMAELTERYGAGMSPVREALSRLVGEGLVQSEGQRGFRVA	-0.0944
HMDIDLGAVEEQAVKGSGPGGQKMNKTSSGVLLRYRLGEELVLVKWTRERQHSLNRFLALRELVDEIEAR	≥ 0.62
HMQWQPSEEAMQRLEQHGIPRAFSFSQLDAFVLQGQEQGSNRNDWNTRFFRFIKNQWVYAQN	-1.62

Sequence	soluble fraction (log2)
HMFTLNEIIGQKIRNARISAGLTLDELSKMTGISAAQLSSLETGYRRANIDTLYAIAKAIGIDVSNLLKY	-0.46
HMSQESIMPNLVGSTEDEAKAIAVEYGFQLNVISRVNNSQYPAGVIIDQNVDEGVRIKAGYPVGVTIS	-0.207
HMTRAETPMAFIRAMVEAYTERGLDPNQALRKAQITPSQLKSTNARVTTLQMEWMSETAMREL	0.0088
HMTRDAQLAALERLMDDPSPVVRKAVLKGVQAAGTEGLLWLQQLSKNQTLGPYALALLTELR	-0.412
HMDAVDKDGNHMTFKKWSEQLQEAFHALELYDTTRAKQILSELVKFQVDSDITKSLKAIITNIDDMMA	-0.338
HMGGLAHPASGEEMEHLFAHLEGELLKSGFLFPPDKAAGMMRNIRAMLTRADFTDQEVRTLRGMIVALSRG	-1.66
HMEILNYVVSDGQSGIRIDRYLSDSNEDLSRSYIQKLLKEQKVTVQGTFVKANYKVQAGDVITVEVPDMA	-0.946
HMVKRAYGEYVNVKLTDADLSKLKADFPADWQERIERLSTYMASTGKTYKNHLATIRNWARRDAERVSA	0.22
HMEVKRANRKERFLEALPYQFSRQDYLNIADKNKIPHKTAEGYITKFVDAGLIHREAHNNYTNPTKA	0.146
HMFLTSDEGKIMQLLEDKQRITRKDAQELLGVSQSTAGRILKTLVDNGQITQRGGGRTTRYELIK	0.184
HMQVSDTNTLEQFAKEVIEANPKAVEDYHQNPLAIGFLVGQLMKVSKGSANPQTGKEILEKLL	0.178
HMKLLLSANISKLRKKYSMTQEQLAEALGVTFASVSKWERGVATPELKLIAEMADMFEVSIDALIGYEFRN	-1.39
HMGPAAGVVEKYNLAHLSTGEMIRKEIAEGSDFGKMAAGIINKGELLSDEFVVALIENSIEHHKNVDGFLF	-0.00841
HMDADRLSPREREMLQFIARGQSNKEIARALELAESTVKIHVQNMLRKLNLSSRVQAAVFAVENGLG	-0.109
HMTIDNPESQKIMDMVPFFFQSRNYDEAIEALTYVIEQEPQFSEAYNKRATFYFMMGDLENSMKDIEITLA	-0.401
HMRLPNHYGSVVKLSGKRRRPFMVRGGVYGYDDRGYPQYVIVGYTETREQGLTMLAEYNRNP	-3.22
HMTFVHTQIEATKEWIISHPLDKHPAVAVVDSAGSIVIGEVDYISKSIVRLRFTAEFSGKAYL	-0.598
HMRITEQRRTLAKLFADTPGYLSPKDVYDYMGRFYPGLSFDTVYRNLRLLDELGVLEQVVFEDGVKFK	-0.718
HMKETLSINSTDFEVRRSSRRKRISVGFDTGTETFFIAAPTKLAGTDILRILGPQISRLMDRLT	-1.95
HMDSAMMDLVMRVQLALFTKGYDVGIIDGKIGPKTRAQIKRYQSDNRLSSTGTLTTSLLTSLGIQ	-1.88
HMSMNSWFVEKERDNTRIDKFLNEQMADISRSYIQKLIKDDLVTVDLRPVKANYKVKEGDRVEVTLPEPV	0.0182
HMSVFMIIVLKQHAPQEFVDMLMSSIKAKGVQIDVSKGARKTILGLVGNTSVIDREQIAGYEYVDKVIRV	-0.85
HMDTLRARQEAAYRFLSAIAGDWRNYEEANRALFAGDAARFQDLTESWPADVRDHARHLASAAFSS	-0.543
HMLKLEDIKKDAQVKGIVDGQIVRIVTVEPIGDHALTVYYKDHQGQFAERMLFRSDELNLELATA	-0.00641
HMIITLNIENLKRARENAGLTQTQAAQKIGVSDGTYKNYEQGKREPNGDKIVTIANAFGVTTDYLLGR	-0.334
